This test deals with T1, biotinylated thrombin ([B]-thrombin) (Homo sapiens, UniProt P00734).
T1 construct: present in blood plasma in the form of a precursor, pro-thrombin
The test can be described thus: Binding of biotinylated thrombin to complementary peptides coated on ELISA plates. The following applies: for specific binding of [B]-thrombin to the complementary peptide: peptide-coated ELISA plate, total minus nonspecific binding (excess unlabeled thrombin), HRP-avidin readout at 450 nm. The procedure:
Complementary peptides (CPs) (AC-23, 23C53, C1053 and ND1053) were coated onto individual wells of 96 well plates by incubating in a 10 μg/ml solution of peptide in carbonate buffer (pH 9.5) or in Phosphate Buffered Saline (PBS) overnight at room temperature. The amino acid sequences of particular complementary peptides are described below and are depicted in FIG. 4. In particular, the following CPs were generated:
Prior to use, the wells were covered with blocking solution containing 0.1% bovine serum albumin (BSA) to reduce non-specific binding. The plates were rinsed and stored at 4° C. until used. To perform the binding experiments, the peptide-coated ELISA plates were blocked with 200 μl per well of blocking buffer (0.1% BSA (w/v) in PBS) for 90 minutes at room temperature. The plates were subsequently rinsed two times with distilled water. Total and nonspecific (NS) binding was determined, respectively, by adding 100 μl per well of 125 ng/ml of biotinylated thrombin ([B]-thrombin) alone or containing 12.5 μg/ml of unlabeled thrombin for 90 minutes at room temperature. The plates were then rinsed four times with PBSTT (PBS+0.5% v/v Tween 20 (polyoxyethylene sorbitan monolaurate)), and 100 μl of Avidin-HRP antibody (Becton Dickinson) diluted to 1:1000 was added per well for 120 minutes at room temperature. The plates were subsequently rinsed four times with PBSTT, and 100 μl of Turbo TMB substrate (Pierce) was added for 30 minutes at room temperature. The reaction was stopped by adding 100 μl per well of 1 N H2SO4 and the plates were read immediately at 450 nm using a Spectra Max Plus plate reader (Molecular Device). The specific binding of [B]-thrombin to the coated wells was determined by subtracting non-specific binding from total binding.
Specific thrombin binding was determined using indicated concentrations of biotinylated thrombin alone and with a 100-fold excess of unlabeled thrombin (to define nonspecific binding).

No end group written: not given here.

For “TFTGIPSFPF (complementary peptides) [10C53]”, the “specific binding of [B]-thrombin to the complementary peptide” value (shortened to “specific binding of [B]-thrombin”) was “not”.

Consider “KGSPTVTFTGIPSFPFIRLVTS (complementary peptides) [23C53]”, for which the “specific binding of [B]-thrombin” value is “specifically bound”.

KGSPTVTFTGIPCFPFIRLVTS [AC-23]: the “specific binding of [B]-thrombin” value is reported as “specifically bound”. In addition, where the note is “increasing concentrations of [B]-thrombin on AC-23-coated wells, n=2±SD, read-out: half maximal binding of [B]-thrombin”, the EC50 was 4.8 ± 0.2 nM.
